Consider four molecules from patent publication US20240409645A1 (DUALYX, published 2024).

T1: human IL-2 receptor (IL-2Rα/IL-2Rβ/γc) (human, UniProt P01589 22-272; P14784 27-551; P31785 23-369)
T1 sequence 1: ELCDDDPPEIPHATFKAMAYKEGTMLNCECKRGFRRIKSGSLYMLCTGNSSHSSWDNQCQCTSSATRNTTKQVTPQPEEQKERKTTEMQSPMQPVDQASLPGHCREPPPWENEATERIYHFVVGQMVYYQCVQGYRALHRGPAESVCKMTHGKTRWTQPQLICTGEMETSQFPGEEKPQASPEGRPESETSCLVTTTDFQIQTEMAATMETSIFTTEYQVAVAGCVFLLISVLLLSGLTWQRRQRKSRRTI
T1 sequence 2: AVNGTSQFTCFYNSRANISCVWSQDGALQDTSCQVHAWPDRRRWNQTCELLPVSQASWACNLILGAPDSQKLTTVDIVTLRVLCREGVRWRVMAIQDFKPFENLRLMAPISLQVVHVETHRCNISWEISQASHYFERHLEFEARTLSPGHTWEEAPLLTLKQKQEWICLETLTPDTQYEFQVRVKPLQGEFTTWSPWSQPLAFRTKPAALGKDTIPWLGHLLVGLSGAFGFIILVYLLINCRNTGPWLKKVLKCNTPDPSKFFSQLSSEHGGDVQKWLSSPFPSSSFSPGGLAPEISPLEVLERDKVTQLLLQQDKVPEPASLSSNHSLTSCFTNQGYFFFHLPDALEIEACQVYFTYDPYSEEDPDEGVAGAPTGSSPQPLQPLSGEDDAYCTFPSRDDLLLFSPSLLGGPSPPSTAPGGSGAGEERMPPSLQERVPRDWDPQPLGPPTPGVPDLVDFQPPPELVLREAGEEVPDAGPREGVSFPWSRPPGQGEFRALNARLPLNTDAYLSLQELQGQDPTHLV
T1 sequence 3: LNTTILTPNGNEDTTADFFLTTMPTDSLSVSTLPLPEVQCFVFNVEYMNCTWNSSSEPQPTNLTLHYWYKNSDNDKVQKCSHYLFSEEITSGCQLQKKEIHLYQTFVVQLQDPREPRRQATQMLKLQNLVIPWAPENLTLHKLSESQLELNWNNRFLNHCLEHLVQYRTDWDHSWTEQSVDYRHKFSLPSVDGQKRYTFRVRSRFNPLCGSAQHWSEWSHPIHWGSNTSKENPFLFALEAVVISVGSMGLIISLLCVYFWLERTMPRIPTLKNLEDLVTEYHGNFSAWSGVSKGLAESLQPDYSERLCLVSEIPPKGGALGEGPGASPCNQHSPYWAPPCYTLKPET

B1: DC00047 (other)
chain 1: QVQLVESGGGLVQPGGSLRLSCATSGFTFRNNFMSWVRQAPGKGLEWVSTISYGGESTTYAESVKGRFTISRDNAKNTLYLQMNNLKPEDTAVYYCAKATSYDSIRSGSRGQGTQVTVSSGGGGSGGGGSGGGGSQVQLVESGGGLVQPGGSLRLSCATSGFTFRNNFMSWVRQAPGKGLEWVSTISYGGESTTYAESVKGRFTISRDNAKNTLYLQMNNLKPEDTAVYYCAKATSYDSIRSGSRGQGTQVTVSSDKTHTCPPCPAPEAAGGPSVFLFPPKPKDTLMISRTPEVTCVVVDVSHEDPEVKFNWYVDGVEVHNAKTKPREEQYNSTYRVVSVLTVLHQDWLNGKEYKCKVSNKALGAPIEKTISKAKGQPREPQVYTLPPSRDELTKNQVSLTCLVKGFYPSDIAVEWESNGQPENNYKTTPPVLDSDGSFLLYSKLTVDKSRWQQGNVFSCSVMHEALHNHYTQKSLSLSPGK
chain 2: EVQLVESGGGLVQTGGSLRLSCAASGGTFSRDAMAWFRQVPGKEREFVALISWSGATTNYADSVKGRFAISRDNGKNTVYLQMNRLKPADTAIYYCAADRRPMGSRSYFEPTEYDDWGQGTQVTVSSGGGGSGGGGSGGGGSQVQLVESGGGLVQAGGSLTLSCAAPGRTFGTDVVGWFRQAPGKEREFVASISRSGDGIYYDDSVKGRFTISRNNAWNTVNLQMNSLKVEDTAVYYCAAGDGWSTYDYWGQGTQVTVSSGGGGSGGGGSGGGGSDKTHTCPPCPAPEAAGGPSVFLFPPKPKDTLMISRTPEVTCVVVDVSHEDPEVKFNWYVDGVEVHNAKTKPREEQYNSTYRVVSVLTVLHQDWLNGKEYKCKVSNKALGAPIEKTISKAKGQPREPQVYTLPPSRDELTKNQVSLTCLVKGFYPSDIAVEWESNGQPENNYKTTPPVLDSDGSFFLYSRLTVDKSRWQQGNVFSCSVMHEALHNHYTQKSLSLSPGK
B2: DC00049 (other)
chain 1: QVQLVESGGGLVQPGGSLRLSCATSGFTFRNNFMSWVRQAPGKGLEWVSTISYGGESTTYAESVKGRFTISRDNAKNTLYLQMNNLKPEDTAVYYCAKATSYDSIRSGSRGQGTQVTVSSGGGGSGGGGSGGGGSQVQLVESGGGLVQPGGSLRLSCATSGFTFRNNFMSWVRQAPGKGLEWVSTISYGGESTTYAESVKGRFTISRDNAKNTLYLQMNNLKPEDTAVYYCAKATSYDSIRSGSRGQGTQVTVSSDKTHTCPPCPAPEAAGGPSVFLFPPKPKDTLMISRTPEVTCVVVDVSHEDPEVKFNWYVDGVEVHNAKTKPREEQYNSTYRVVSVLTVLHQDWLNGKEYKCKVSNKALGAPIEKTISKAKGQPREPQVYTLPPSRDELTKNQVSLTCLVKGFYPSDIAVEWESNGQPENNYKTTPPVLDSDGSFLLYSKLTVDKSRWQQGNVFSCSVMHEALHNHYTQKSLSLSPGK
chain 2: QVQLVESGGGLVQAGGSLTLSCAAPGRTFGTDVVGWFRQAPGKEREFVASISRSGDGIYYDDSVKGRFTISRNNAWNTVNLQMNSLKVEDTAVYYCAAGDGWSTYDYWGQGTQVTVSSGGGGSGGGGSGGGGSEVQLVESGGGLVQTGGSLRLSCAASGGTFSRDAMAWFRQVPGKEREFVALISWSGATTNYADSVKGRFAISRDNGKNTVYLQMNRLKPADTAIYYCAADRRPMGSRSYFEPTEYDDWGQGTQVTVSSGGGGSGGGGSGGGGSDKTHTCPPCPAPEAAGGPSVFLFPPKPKDTLMISRTPEVTCVVVDVSHEDPEVKFNWYVDGVEVHNAKTKPREEQYNSTYRVVSVLTVLHQDWLNGKEYKCKVSNKALGAPIEKTISKAKGQPREPQVYTLPPSRDELTKNQVSLTCLVKGFYPSDIAVEWESNGQPENNYKTTPPVLDSDGSFFLYSRLTVDKSRWQQGNVFSCSVMHEALHNHYTQKSLSLSPGK
B3: DC00050 (other)
chain 1: QVQLVESGGGLVQPGGSLRLSCATSGFTFRNNFMSWVRQAPGKGLEWVSTISYGGESTTYAESVKGRFTISRDNAKNTLYLQMNNLKPEDTAVYYCAKATSYDSIRSGSRGQGTQVTVSSGGGGSGGGGSGGGGSQVQLVESGGGLVQPGGSLRLSCATSGFTFRNNFMSWVRQAPGKGLEWVSTISYGGESTTYAESVKGRFTISRDNAKNTLYLQMNNLKPEDTAVYYCAKATSYDSIRSGSRGQGTQVTVSSDKTHTCPPCPAPEAAGGPSVFLFPPKPKDTLMISRTPEVTCVVVDVSHEDPEVKFNWYVDGVEVHNAKTKPREEQYNSTYRVVSVLTVLHQDWLNGKEYKCKVSNKALGAPIEKTISKAKGQPREPQVYTLPPSRDELTKNQVSLTCLVKGFYPSDIAVEWESNGQPENNYKTTPPVLDSDGSFLLYSKLTVDKSRWQQGNVFSCSVMHEALHNHYTQKSLSLSPGK
chain 2: QVQLVESGGGLVQPGGSLRLSCATSGFTFRNNFMSWVRQAPGKGLEWVSTISYGGESTTYAESVKGRFTISRDNAKNTLYLQMNNLKPEDTAVYYCAKATSYDSIRSGSRGQGTQVTVSSGGGGSGGGGSGGGGSEVQLVESGGGLVQTGGSLRLSCAASGGTFSRDAMAWFRQVPGKEREFVALISWSGATTNYADSVKGRFAISRDNGKNTVYLQMNRLKPADTAIYYCAADRRPMGSRSYFEPTEYDDWGQGTQVTVSSGGGGSGGGGSGGGGSQVQLVESGGGLVQAGGSLTLSCAAPGRTFGTDVVGWFRQAPGKEREFVASISRSGDGIYYDDSVKGRFTISRNNAWNTVNLQMNSLKVEDTAVYYCAAGDGWSTYDYWGQGTQVTVSSGGGGSGGGGSGGGGSDKTHTCPPCPAPEAAGGPSVFLFPPKPKDTLMISRTPEVTCVVVDVSHEDPEVKFNWYVDGVEVHNAKTKPREEQYNSTYRVVSVLTVLHQDWLNGKEYKCKVSNKALGAPIEKTISKAKGQPREPQVYTLPPSRDELTKNQVSLTCLVKGFYPSDIAVEWESNGQPENNYKTTPPVLDSDGSFFLYSRLTVDKSRWQQGNVFSCSVMHEALHNHYTQKSLSLSPGK
B4: DC00048 (other)
chain 1: QVQLVESGGGLVQPGGSLRLSCATSGFTFRNNFMSWVRQAPGKGLEWVSTISYGGESTTYAESVKGRFTISRDNAKNTLYLQMNNLKPEDTAVYYCAKATSYDSIRSGSRGQGTQVTVSSGGGGSGGGGSGGGGSQVQLVESGGGLVQPGGSLRLSCATSGFTFRNNFMSWVRQAPGKGLEWVSTISYGGESTTYAESVKGRFTISRDNAKNTLYLQMNNLKPEDTAVYYCAKATSYDSIRSGSRGQGTQVTVSSDKTHTCPPCPAPEAAGGPSVFLFPPKPKDTLMISRTPEVTCVVVDVSHEDPEVKFNWYVDGVEVHNAKTKPREEQYNSTYRVVSVLTVLHQDWLNGKEYKCKVSNKALGAPIEKTISKAKGQPREPQVYTLPPSRDELTKNQVSLTCLVKGFYPSDIAVEWESNGQPENNYKTTPPVLDSDGSFLLYSKLTVDKSRWQQGNVFSCSVMHEALHNHYTQKSLSLSPGK
chain 2: QVQLVESGGGLVQPGGSLRLSCATSGFTFRNNFMSWVRQAPGKGLEWVSTISYGGESTTYAESVKGRFTISRDNAKNTLYLQMNNLKPEDTAVYYCAKATSYDSIRSGSRGQGTQVTVSSGGGGSGGGGSGGGGSQVQLVESGGGLVQAGGSLTLSCAAPGRTFGTDVVGWFRQAPGKEREFVASISRSGDGIYYDDSVKGRFTISRNNAWNTVNLQMNSLKVEDTAVYYCAAGDGWSTYDYWGQGTQVTVSSGGGGSGGGGSGGGGSEVQLVESGGGLVQTGGSLRLSCAASGGTFSRDAMAWFRQVPGKEREFVALISWSGATTNYADSVKGRFAISRDNGKNTVYLQMNRLKPADTAIYYCAADRRPMGSRSYFEPTEYDDWGQGTQVTVSSGGGGSGGGGSGGGGSDKTHTCPPCPAPEAAGGPSVFLFPPKPKDTLMISRTPEVTCVVVDVSHEDPEVKFNWYVDGVEVHNAKTKPREEQYNSTYRVVSVLTVLHQDWLNGKEYKCKVSNKALGAPIEKTISKAKGQPREPQVYTLPPSRDELTKNQVSLTCLVKGFYPSDIAVEWESNGQPENNYKTTPPVLDSDGSFFLYSRLTVDKSRWQQGNVFSCSVMHEALHNHYTQKSLSLSPGK

The assay addresses T1, human IL-2 receptor (IL-2Rα/IL-2Rβ/γc). Nature of the assay: cell-based or functional assay.
For B1, the “Fold Max signal (% pSTAT5+) Treg/NK” value amounted to 1 fold; the “Max signal (% pSTAT5+), NK” value was 0 % pSTAT5+; the “Max signal (% pSTAT5+), Treg” value stood at 0 % pSTAT5+.
Consider B2, for which the “EC50 (nM) pSTAT5, NK, human PBMCs” value worked out at 0.198 nM; the “EC50 (nM) pSTAT5, Treg, human PBMCs” value amounted to 0.00336 nM; the “Fold Max signal (% pSTAT5+) Treg/NK” value came to 4 fold; the “Max signal (% pSTAT5+), NK” value turned out to be 27 % pSTAT5+. Also, the “Max signal (% pSTAT5+), Treg” value is 95 % pSTAT5+ and the “fold EC50 NK/Treg” value amounted to 59 fold.
Consider B3, for which the “EC50 (nM) pSTAT5, NK, human PBMCs” value was 0.0326 nM; the “EC50 (nM) pSTAT5, Treg, human PBMCs” value stood at 0.00134 nM; the “Fold Max signal (% pSTAT5+) Treg/NK” value was determined as 7 fold; the “Max signal (% pSTAT5+), NK” value worked out at 8 % pSTAT5+. Moreover, the “Max signal (% pSTAT5+), Treg” value turned out to be 56 % pSTAT5+ and the “fold EC50 NK/Treg” value was 24 fold.
With B4, the “EC50 (nM) pSTAT5, NK, human PBMCs” value was found to be 0.176 nM; the “EC50 (nM) pSTAT5, Treg, human PBMCs” value was under 0.1 pM; the “Fold Max signal (% pSTAT5+) Treg/NK” value was 4 fold; the “Max signal (% pSTAT5+), NK” value came to 26 % pSTAT5+. Besides, the “Max signal (% pSTAT5+), Treg” value was determined as 95 % pSTAT5+ and the “fold EC50 NK/Treg” value was over 1760 fold.
